From patent US20210205365A1, “Chimeric Growth Factor Receptors” (Instil Bio (UK) Ltd., priority 2018, published 2021) come the findings set out here.

Assay [1] relates to Tumour Infiltrating Lymphocytes from TIL042. Briefly: CrGFR in TIL042 mixed with patient matched tumour cells. It is filed as cell-based, human. As to the method:
(§1) FIG. 13—Analysis of Chimeric recombinant Growth Factor Receptors in TIL042. Tumour Infiltrating Lymphocytes from TIL042 were transduced with the WT TpoR or indicated variant CrGFR and incubated in the presence of patient matched tumour lines with the addition of IL2, Eltrombopag, IL-2+Eltrombopag, or no growth factors. Cells were analysed and counted at days 4 and 7 and the number of cells expressing the receptor assessed using PE conjugated anti-CD110 antibodies, DRAQ7 viability dye and a MACSQuant analyser. Graphs show counts between days 4 and 7 when recovery of TIL occurs after an initial contraction in numbers driven by tumour regulatory factors and/or activation induced cell death.
Applicants next assessed the ability of these receptors to promote survival/expansion in a model of adoptive cell therapy by engineering tumour infiltrating lymphocytes. TIL from patient TIL042 (Uveal melanoma) were engineered with the variant or wt CrGFR and mixed with patient matched tumour cells (CTUM42.1). On days 4 and 7 counts were made of the total cells as well as the CD110+ cells. Applicants found an initial decline in cell numbers, probably driven by AICD or intrinsic inhibitory factors. However between days 4 and 7 Applicants observed an increase in the numbers of CD110+ cells with all the receptors tested with Eltrombopag or Eltrombopag+low dose IL-2.

Assay [2] deals with primary human T-cells. Briefly: Eltrombopag and IL-2 on CrGFR sorted (CD110+) primary human T-cells, up to 7 days. It is filed as cell-based. The note with it: for expansion of CrGFR cells above that with media alone: second donor (FIG. 12). As to the method:
FIG. 10—Analysis of Eltrombopag and IL-2 on CrGFR sorted primary human T-cells from Donor 4. Primary human T-cells from donor 4 were transduced with the WT TpoR or variant CrGFR, and enriched for expression by Miltenyi MACS technology selected for and incubated in the presence of IL2 or Eltrombopag. Cells were removed at time points up to 7 days and the number of cells expressing the receptor assessed using PE conjugated anti-CD110 antibodies, DRAQ7 viability dye and a MACSQuant analyser.
FIG. 11—Analysis of Eltrombopag and IL-2 on CrGFR sorted primary human T-cells from Donor 5. Primary human T-cells from donor 5 were transduced with the WT TpoR or variant CrGFR, and enriched for expression by Miltenyi MACS technology selected for and incubated in the presence of IL2 or Eltrombopag. Cells were removed at time points up to 7 days and the number of cells expressing the receptor assessed using PE conjugated anti-CD110 antibodies, DRAQ7 viability dye and a MACSQuant analyser.
FIG. 12—Analysis of Eltrombopag and IL-2 on CrGFR sorted primary human T-cells from Donor 6. Primary human T-cells from donor 6 were transduced with the WT TpoR or variant CrGFR, and enriched for expression by Miltenyi MACS technology selected for and incubated in the presence of IL2 or Eltrombopag. Cells were removed at time points up to 7 days and the number of cells expressing the receptor assessed using PE conjugated anti-CD110 antibodies, DRAQ7 viability dye and a MACSQuant analyser.
Paramagnetic bead sorts were conducted as per the manufacturers' instructions using either anti-PE microbeads (Miltenyi Biotec or StemCell Technologies), or T-cell isolation beads (17951: StemCell Technologies).
Next Applicants repeated the experiment but sorted the CrGFR+ cells using CD110+ selection by paramagnetic bead selection using the receptors identified from the first round of selections (FIGS. 10, 11 and 12). Applicants observed enhanced survival of T-cells engrafted with the majority of the CrGFR in all three donors. In particular Applicants saw expansion of WT-TpoR, TpOR.CD40, TpOR.IL2rγ and TpoR.LMP1-cyto cells in the second donor (FIG. 12) above that with media alone.

A further assay relates to ovarian TIL. Briefly: CrGFR in ovarian TIL mixed with patient matched tumour cells. It counts as cell-based, human. The note with it: all three donors. As to the method: as §1, with “14—Analysis” for “13—Analysis”, “Ovarian TIL.” for “TIL042.”, “×3 ovarian TIL” for “TIL042”, “cells” for “lines”, “either Eltrombopag” for “the addition of IL2, Eltrombopag, IL-2+Eltrombopag,”
Applicants evaluated further the effect of the CrGFR in ovarian TIL. Three ovarian TIL populations were engineered to express either the WT, or TpoR.CD40, TpoR.IL2rγ or TpoR.LMP1-Cyt variant receptors and mixed with patient matched tumour cells in the presence or absence of Eltrombopag. Counts of total and CD110+ cells were made after 4 and 7 days. Applicants observed specific expansion of the CrGFR+ cells in the presence of tumour between days 4 and 7 in donors 2 and 3 with all the receptors except the TpOR.LMP1.cyt.

Assay [3] deals with primary human T-cells. Briefly: Eltrombopag and IL-2 on CrGFR transduced primary human T-cells, up to 21 days. It is filed as cell-based. Conditions: after 21 days, x3 donors, Eltrombopag. As to the method: FIGS. 6A-6B—Analysis of Eltrombopag and IL-2 on primary human T-cells from Donor 1. Primary human T-cells from donor 1 were transduced with the WT TpoR or variant CrGFR and incubated in the presence of IL2 or Eltrombopag. Cells were removed at time points up to 21 days and the proportion of cells expressing the receptor assessed using PE conjugated anti-CD110 antibodies and a MACSQuant analyser.
FIGS. 7A-7B—Analysis of Eltrombopag and IL-2 on primary human T-cells from Donor 2. Primary human T-cells from donor 2 were transduced with the WT TpoR or variant CrGFR and incubated in the presence of IL2 or Eltrombopag. Cells were removed at time points up to 21 days and the proportion of cells expressing the receptor assessed using PE conjugated anti-CD110 antibodies and a MACSQuant analyser.
FIGS. 8A-8B—Analysis of Eltrombopag and IL-2 on primary human T-cells from Donor 3. Primary human T-cells from donor 3 were transduced with the WT TpoR or variant CrGFR and incubated in the presence of IL2 or Eltrombopag. Cells were removed at time points up to 21 days and the proportion of cells expressing the receptor assessed using PE conjugated anti-CD110 antibodies and a MACSQuant analyser.
FIGS. 9A-9B—Selection of optimal CrGFRs for next round of analysis. Flow cytometry plots showing expression of CrGFRs in ×3 donor primary human T-cells after 21 days incubation in Eltrombopag. The receptors TpoR.CD40, TpoR.IL2rγ, TpoR.ITAM1, TpoR.A60, TpoR.LMP1-cyto and TpoR.TpoR-cyto.LMP1-cyto were chosen for future comparison with the wt TpoR.
Peripheral blood mononuclear cells were isolated from normal healthy donors before activation for 24 hours with T-cell activation and expansion beads (Invitrogen) according to the manufacturer's instructions before addition of lentiviral supernatants.
Following expansion cells were washed excessively to remove any exogenous IL2 and plated into 96-well U-bottom plates. Cells were supplemented with IL2 (Proleukin) or Eltrombopag (Stratech Scientific, Suffolk, UK). At various time points thereafter cells were either stained with a 1:400 dilution of eFlor-450 fixable viability dye (eBioscience, UK) and counted directly from the wells using a MACSQuant Cytometer, or were stained with DRAQ7 viability dye plus phycoerythrin conjugated anti-CD110 antibodies (Miltenyi Biotec, UK) and analysed using a MACSQuant cytomter. Cell viability and/or transduction level was then analysed using MACSQuantify software (Miltenyi Biotec, UK).
Next Applicants took these receptors and expressed them in primary human T-cells and exposed these cells to IL-2 or Eltrombopag. Three donor primary human T-cell populations were isolated from buffy coats and transduced with the indicated lentiviral constructs in the presence of CD3/CD28 Dynabeads. Following expansion the cells were incubated with IL-2 or Eltrombopag. Applicants saw an increase in expansion/survival of T-cells with some of the receptors in some of the donors. […] This narrowed Applicants' panel of receptors to analyse further to: TpoR.CD40, TpOR.IL2rγ, TpoR.ITAM1, TpOR.LMP1-cyt, and TpoR.TpoR-cyt-LMP1-cyt.

The next assay has as its system phospho-STAT5. The assay can be described thus: Induction of pSTAT5 in CrGFR expressing T-cells. Conditions: T-cells transduced with wt TpoR, TpoR.CD40 or TpoR.IL2rγ. It counts as cell-based, human. As to the method:
FIG. 15—Induction of pSTAT by chimeric recombinant growth factor receptors. Primary human T-cells were isolated and transduced with the indicated CrGFR. Cells were enriched for CrGFR expression using Miltenyi MACS technology and expanded via polyclonal stimulation. The enriched cells were stimulated for 4 h with either media alone (RPMI), IL2, IL12, Tpo or Eltrombopag (Elt) before methanol fixation and intracellular staining with antibodies towards phospho-STAT5.
Finally, Applicants validated the signalling potential of the novel CrGFR by conducting phospho STAT analysis upon treatment of CrGFR expressing T-cells with media, cytokine or drug. To this end T-cells from 4 donors were transduced with either the wt TpoR, TpoR. CD40 or TpoR.IL2rγ, enriched for CrGFR expression using paramagnetic bead selection protocols and then expanded using polyclonal stimulation. The cells were treated for four hours with media alone (RPMI), IL-2, Tpo or Eltrombopag (Elt) before methanol fixation, permeabilization and analysis using pSTAT specific antibodies. STAT molecules are the key drivers of cell signalling upon cytokine activation of cells, pSTAT5 in particular is key to IL-2 activity.

B1: TpoR.CD40: SEQ ID NO: 9; TpoR fused to CD40 cytoplasmic domain (protein)
chain: MPSWALFMVTSCLLLAPQNLAQVSSQDVSLLASDSEPLKCFSRTFEDLTCFWDEEEAAPSGTYQLLYAYPREKPRACPLSSQSMPHFGTRYVCQFPDQEEVRLFFPLHLWVKNVFLNQTRTQRVLFVDSVGLPAPPSIIKAMGGSQPGELQISWEEPAPEISDFLRYELRYGPRDPKNSTGPTVIQLIATETCCPALQRPHSASALDQSPCAQPTMPWQDGPKQTSPSREASALTAEGGSCLISGLQPGNSYWLQLRSEPDGISLGGSWGSWSLPVTVDLPGDAVALGLQCFTLDLKNVTCQWQQQDHASSQGFFYHSRARCCPRDRYPIWENCEEEEKTNPGLQTPQFSRCHFKSRNDSIIHILVEVTTAPGTVHSYLGSPFWIHQAVRLPTPNLHWREISSGHLELEWQHPSSWAAQETCYQLRYTGEGHQDWKVLEPPLGARGGTLELRPRSRYRLQLRARLNGPTYQGPWSSWSDPTRVETATETAWISLVTALHLVLGLSAVLGLLLLRWQFPAHYRRLRHALWPSLPDLHRVLGQYLRDTAALSPPKATVSDTCEEVEPSLLEILPKSSERTPLPLCSSQAQMDYRRLQPSCLGTMPLSVCPPMAESGSCCTTHIANHSYLPLSYWQQPKKVAKKPTNKAPHPKQEPQEINFPDDLPGSNTAAPVQETLHGCQPVTQEDGKESRISVQERQ
modifications: TpoR-CD40; MISC_FEATURE (1)..(491): TpoR Extracellular Domain; MISC_FEATURE (492)..(513): TpoR Transmembrane Domain; MISC_FEATURE (514)..(635): TpoR Cytoplasmic Domain; MISC_FEATURE (636)..(697): CD40 Cytoplasmic Domain
Consider B1, for which the “non-specific enrichment in IL2 alone” value in assay [1] (TIL042 with patient matched tumour cells) is recorded as “no non-specific enrichment”. For the same molecule, the “Eltrombopag mediated survival/expansion of TIL” value in assay [1] (conclusion) was “very specific”. Moreover, the “activity in primary human T-cells” value in the assay on primary human T-cells [2] (conclusion) is “optimal activity”. The “expansion of CrGFR cells above that with media alone” value in the assay on primary human T-cells [2] was “expansion”. The “activity compared with the WT receptor” value in the assay with ovarian TIL is given as “superior to that of the WT receptor”. Also, the “proportion of viable cells with a distinct population of CD110+ cells” value with primary human T-cells [3] was “good proportion of viable cells with a distinct population of CD110+ cells”.

B2: TpoR.IL2rγ: SEQ ID NO: 6; TpoR fused to IL2rγ cytoplasmic domain (protein)
chain: MPSWALFMVTSCLLLAPQNLAQVSSQDVSLLASDSEPLKCFSRTFEDLTCFWDEEEAAPSGTYQLLYAYPREKPRACPLSSQSMPHFGTRYVCQFPDQEEVRLFFPLHLWVKNVFLNQTRTQRVLFVDSVGLPAPPSIIKAMGGSQPGELQISWEEPAPEISDFLRYELRYGPRDPKNSTGPTVIQLIATETCCPALQRPHSASALDQSPCAQPTMPWQDGPKQTSPSREASALTAEGGSCLISGLQPGNSYWLQLRSEPDGISLGGSWGSWSLPVTVDLPGDAVALGLQCFTLDLKNVTCQWQQQDHASSQGFFYHSRARCCPRDRYPIWENCEEEEKTNPGLQTPQFSRCHFKSRNDSIIHILVEVTTAPGTVHSYLGSPFWIHQAVRLPTPNLHWREISSGHLELEWQHPSSWAAQETCYQLRYTGEGHQDWKVLEPPLGARGGTLELRPRSRYRLQLRARLNGPTYQGPWSSWSDPTRVETATETAWISLVTALHLVLGLSAVLGLLLLRWQFPAHYRRLRHALWPSLPDLHRVLGQYLRDTAALSPPKATVSDTCEEVEPSLLEILPKSSERTPLPLCSSQAQMDYRRLQPSCLGTMPLSVCPPMAESGSCCTTHIANHSYLPLSYWQQPERTMPRIPTLKNLEDLVTEYHGNFSAWSGVSKGLAESLQPDYSERLCLVSEIPPKGGALGEGPGASPCNQHSPYWAPPCYTLKPET
modifications: TpoR.IL2rgamma; MISC_FEATURE (1)..(491): TpoR Extracellular Domain; MISC_FEATURE (492)..(513): TpoR Transmembrane Domain; MISC_FEATURE (514)..(635): TpoR Cytoplasmic Domain; MISC_FEATURE (636)..(721): IL2r-gamma Cytoplasmic Domain
Take B2: in the assay on primary human T-cells [2], the “expansion of CrGFR cells above that with media alone” value is given as “expansion”. In the assay with ovarian TIL, the “activity compared with the WT receptor” value is recorded as “superior to that of the WT receptor”. The “STAT5 activation of the CrGFR when stimulated with Eltrombopag” value with phospho-STAT5 was “clear activation of the correct STAT5 activation pathway”. In addition, the “proportion of viable cells with a distinct population of CD110+ cells” value in the assay with primary human T-cells [3] is reported as “good proportion of viable cells with a distinct population of CD110+ cells”.
